The series concerns CC(C)(COP(=O)(O)OP(=O)(O)OC[C@H]1O[C@@H](n2cnc3c(N)ncnc32)[C@H](O)[C@@H]1OP(=O)(O)O)[C@@H](O)C(=O)NCCC(=O)NCCSC(=O)CCC(=O)O. Description: purified protein. The following applies: PLP.

In the case of “5-aminolevulinate synthase (cALAS) (Caulobacter vibrioides CB15)”, the Km came to 2.42 ± 0.32 µM.
